Laboratory results reported in patent publication US10766952B2, “Methods for reducing migraine frequency in a subject in need thereof” (Beth Israel Deaconess Medical Center, Inc., priority 2017, dated 2020).

Tested on: high-threshold (HT) trigeminovascular neurons
Assay: Activation and sensitization of central trigeminovascular neurons by cortical spreading depression (CSD), HT neurons
Assay type: in vivo, rat
Conditions: for firing of HT neurons before CSD: 30 mg/kg IV, 4 hours after treatment; for firing of HT neurons after CSD: 6 hours after treatment; for expected CSD-induced activation of the HT neurons: 30 mg/kg IV 4 hours before CSD
Procedure: Cortical spreading depression (CSD) was induced mechanically by inserting a glass micropipette (tip diameter 25 μm) about 1 mm into the visual cortex for 10 sec. At a propagation rate of 3-5 mm/min, a single wave of CSD was expected to enter the neuronal receptive field within 1-2 min of cortical stimulation. For verification of CSD, cortical activity was recorded (electrocorticogram) with a glass micropipette (0.9% saline, ˜1 megohm, 7 um tip) placed just below the surface of the cerebral cortex (approximately 100 μm). The electrocorticogram electrode was positioned about 6 mm anterior to the visual cortex.
It was diluted in saline to a final dose of 30 mg/kg and administered intravenously (bolus injection, total volume 0.6-0.7 ml). A corresponding human IgG2 isotype control antibody (isotype-conAb) was also diluted in saline to a final dose of 30 mg/kg and administered intravenously (bolus injection, total volume 1.6-2.0 ml).
The experimental protocol included two parts. The first part was designed to compare CGRP-mAb vs isotype-conAb effects on spontaneous and induced activity of naïve trigeminovascular neurons, and the second part was designed to test CGRP-mAb vs isotype-conAb effects on the activation and sensitization of trigeminovascular neurons by CSD. Both parts included sampling of WDR and HT neurons in male and female rats. In the first part, the baseline neuronal profile was established by (a) mapping the dural, cutaneous and corneal receptive field; (b) measuring responses (mean spikes/sec) to mechanical stimulation of the dura (with a fixed force), skin (brush, pressure, pinch) and cornea (brush), and (c) measuring spontaneous firing rate (recorded over 30 min prior to treatment). Once the baseline was established, CGRP-mAb or isotype-conAb were administered and receptive fields were remapped, neuronal responses to stimulation of the dura, skin and cornea were re-examined, and the spontaneous activity rate was re-sampled at 1, 2, 3, and 4 hours post-treatment. The resulting values for each measure were then compared with the respective baseline values obtained before treatment. In the second part, CSD was induced 4 hours after administration of CGRP-mAb or isotype-conAb and 2 hours later (i.e., 6 hours after treatment) receptive field size, spontaneous activity rate, and response magnitude to stimulation of the dura, skin and cornea were measured again. The resulting post-CSD values for each measure were then compared with the respective pre-CSD values obtained at the 4-hour post-treatment time. This part was initiated only in cases in which the physiological condition of the rats (heart rate, blood pressure, respiration, end tidal CO2) and the neuronal isolation signal (signal-to-noise ratio ≥1:3) were stable at the 4-hour post-treatment time point.
To calculate the response magnitude to each stimulus, the mean firing frequency occurring before the onset of the first stimulus (30 min for spontaneous activity, 10 sec for mechanical stimulation of the dura, skin and cornea) was subtracted from the mean firing frequency that occurred throughout the duration of each stimulus. […] A neuron was considered activated when its mean firing rate after CSD exceeded its mean baseline activity by 2 standard deviations of that mean for a period >10 min, which translated to ≥33% increase in activity. […] Mean firing rates of respective values were compared using nonparametric statistics (Wilcoxon signed-ranks test). Two-tailed level of significance was set at 0.05.

B1: fremanezumab (antibody)
heavy: EVQLVESGGGLVQPGGSLRLSCAASGFTFSNYWISWVRQAPGKGLEWVAEIRSESDASATHYAEAVKGRFTISRDNAKNSLYLQMNSLRAEDTAVYYCLAYFDYGLAIQNYWGQGTLVTVSSASTKGPSVFPLAPCSRSTSESTAALGCLVKDYFPEPVTVSWNSGALTSGVHTFPAVLQSSGLYSLSSVVTVPSSNFGTQTYTCNVDHKPSNTKVDKTVERKCCVECPPCPAPPVAGPSVFLFPPKPKDTLMISRTPEVTCVVVDVSHEDPEVQFNWYVDGVEVHNAKTKPREEQFNSTFRVVSVLTVVHQDWLNGKEYKCKVSNKGLPSSIEKTISKTKGQPREPQVYTLPPSREEMTKNQVSLTCLVKGFYPSDIAVEWESNGQPENNYKTTPPMLDSDGSFFLYSKLTVDKSRWQQGNVFSCSVMHEALHNHYTQKSLSLSPGK
light: EIVLTQSPATLSLSPGERATLSCKASKRVTTYVSWYQQKPGQAPRLLIYGASNRYLGIPARFSGSGSGTDFTLTISSLEPEDFAVYYCSQSYNYPYTFGQGTKLEIKRTVAAPSVFIFPPSDEQLKSGTASVVCLLNNFYPREAKVQWKVDNALQSGNSQESVTEQDSKDSTYSLSSTLTLSKADYEKHKVYACEVTHQGLSSPVTKSFNRGEC
notes: humanized anti-CGRP antagonist antibody, vectors ATCC PTA-6867 and PTA-6866
- difference in HT neurons activated by CSD versus isotype-conAb (2/14 versus 13/13): 86%
- HT neuronal responses to dural indentation with VFH before CSD (female rats): 10.5±1.6
- HT neurons with expansion of dural receptive fields after CSD (female rats): 0/6
- HT neurons with expansion of facial receptive fields after CSD (female rats): 0/6
- firing of HT neurons before CSD (female rats, 6 HT neurons): 3.3±1.7 spikes/sec
- firing of HT neurons after CSD (female rats, 6 HT neurons, 2 hours after CSD, p=0.45): 5.0±3.4 spikes/sec
- HT neuronal response to brushing the cornea after CSD (female rats, 6 HT neurons, p=0.51): remained unchanged
- expected CSD-induced activation of the HT neurons (female rats): prevented
- HT neuronal responses to dural indentation with VFH after CSD (female rats, 2 hours after CSD, p=0.72): 8.1±6.4
- HT neuronal responses to brush, pressure and pinch of the skin after CSD (male and female rats, 2 hours after CSD, p=0.35, 0.63, 0.78): remained unchanged
- HT neurons activated by CSD (case-by-case analysis) (male and female rats, activated/tested): 2/14
- HT neuronal responses to dural indentation with VFH before CSD (male rats): 1.8±0.6
- HT neurons with expansion of dural receptive fields after CSD (male rats): 2/8
- HT neurons with expansion of facial receptive fields after CSD (male rats): 2/8
- HT neuronal response to brushing the cornea before CSD (male rats, 8 HT neurons): 10.8±3.3 spikes/sec
- firing of HT neurons before CSD (male rats, 8 HT neurons): 1.2±0.6 spikes/sec
- firing of HT neurons after CSD (male rats, 8 HT neurons, 2 hours after CSD, p=0.29): 1.9±1.5 spikes/sec
- HT neuronal response to brushing the cornea after CSD (male rats, 8 HT neurons, p=0.60): 9.4±1.8 spikes/sec
- expected CSD-induced activation of the HT neurons (male rats): prevented
- HT neuronal responses to dural indentation with VFH after CSD (male rats, 2 hours after CSD, p=0.83): 1.9±1.5
